US20070286858A1

Assays:
mLox1-Fc (mouse) = mLox1-Fc (mouse) (UniProt Q9EQ09); assay: direct binding ELISA, receptor coated at 1 µg/ml, antibody at 20 µg/ml
rhVCAM-1 (human) = rhVCAM-1 (human) (UniProt P19320); assay: as above
[1] = target: human RAGE-Fc fusion protein (human) (UniProt Q15109); assay: as above
rhICAM-1-Fc (human) = rhICAM-1-Fc (human) (UniProt P05362); assay: as above
rhNCAM-1 (human) = rhNCAM-1 (human) (UniProt P13591); assay: as above
rhB7-H1-Fc (human) = rhB7-H1-Fc (human) (UniProt Q9NZQ7); assay: as above
hLox1-Fc (human) = hLox1-Fc (human) (UniProt P78380); assay: as above
[2] = target: rhTLR4 (C-terminal His tag) (human) (UniProt O00206); assay: as above
[3] = target: murine RAGE-strep tag fusion protein (mouse) (UniProt Q62151); assay: BIACORE capture, SA-Mu RAGE over captured antibody, 1:1 Langmuir global fit, row Average
[4] = target: soluble human streptavidin-tagged RAGE (human) (UniProt Q15109); assay: BIACORE capture assay, antibody on CM5 chip, hRAGE-SA 0-100 nM in solution
[5] = target: human RAGE-Fc fusion protein (human) (UniProt Q15109); assay: ligand competition ELISA, panel Blocks hRAGE-Fc interaction with S100-B; blocked ligand S100-B
[6] = target: soluble human streptavidin-tagged RAGE (human) (UniProt Q15109); assay: BIACORE capture, hRAGE-SA over captured antibody, 1:1 Langmuir global fit, FC3
[7] = target: human RAGE, full length (human) (UniProt Q15109); assay: cell-based ELISA, 293 cells transfected with human RAGE
[8] = target: human RAGE-Fc fusion protein (human) (UniProt Q15109); assay: ligand competition ELISA, panel Blocks hRAGE-Fc interaction with HMGB1; blocked ligand HMGB1
[9] = target: cynomolgus monkey RAGE (cynomolgus monkey (Macaca fascicularis)); assay: cell-based ELISA, 293 cells transfected with cynomolgus monkey RAGE
[10] = target: human RAGE-Fc fusion protein (human) (UniProt Q15109); assay: ligand competition ELISA, panel Blocks hRAGE-Fc interaction with S100-A; blocked ligand S100-A
[11] = target: soluble human streptavidin-tagged RAGE (human) (UniProt Q15109); assay: BIACORE capture, hRAGE-SA over captured antibody, 1:1 Langmuir global fit, row Average
[12] = target: murine RAGE-strep tag fusion protein (mouse) (UniProt Q62151); assay: BIACORE capture, SA-Mu RAGE over captured antibody, 1:1 Langmuir global fit, FC2
[13] = target: human RAGE-Fc fusion protein (human) (UniProt Q15109); assay: ligand competition ELISA, panel Blocks hRAGE-Fc interaction with A-beta; blocked ligand amyloid beta 1-42 peptide
[14] = target: human RAGE-Fc fusion protein (human) (UniProt Q15109); assay: antibody competition ELISA on hRAGE-Fc; competitor biotinylated XT-M4
[15] = target: murine RAGE-strep tag fusion protein (mouse) (UniProt Q62151); assay: BIACORE capture, SA-Mu RAGE over captured antibody, 1:1 Langmuir global fit, FC4
[16] = target: murine RAGE-strep tag fusion protein (mouse) (UniProt Q62151); assay: BIACORE capture, SA-Mu RAGE over captured antibody, 1:1 Langmuir global fit, FC3

murine RAGE-strep tag fusion protein (mouse), sequence (Q62151 other isoform, or with tags, fused parts or gaps): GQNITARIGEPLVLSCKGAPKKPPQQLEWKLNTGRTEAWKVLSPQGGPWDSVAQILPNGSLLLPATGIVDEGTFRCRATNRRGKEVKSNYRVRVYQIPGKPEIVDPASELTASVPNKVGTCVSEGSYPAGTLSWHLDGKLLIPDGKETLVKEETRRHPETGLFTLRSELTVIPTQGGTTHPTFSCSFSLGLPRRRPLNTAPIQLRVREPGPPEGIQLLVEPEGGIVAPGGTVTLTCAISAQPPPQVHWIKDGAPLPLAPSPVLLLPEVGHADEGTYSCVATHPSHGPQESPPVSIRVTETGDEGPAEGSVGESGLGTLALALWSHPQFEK
rhVCAM-1 (human), sequence (P19320 25-698 limits assumed): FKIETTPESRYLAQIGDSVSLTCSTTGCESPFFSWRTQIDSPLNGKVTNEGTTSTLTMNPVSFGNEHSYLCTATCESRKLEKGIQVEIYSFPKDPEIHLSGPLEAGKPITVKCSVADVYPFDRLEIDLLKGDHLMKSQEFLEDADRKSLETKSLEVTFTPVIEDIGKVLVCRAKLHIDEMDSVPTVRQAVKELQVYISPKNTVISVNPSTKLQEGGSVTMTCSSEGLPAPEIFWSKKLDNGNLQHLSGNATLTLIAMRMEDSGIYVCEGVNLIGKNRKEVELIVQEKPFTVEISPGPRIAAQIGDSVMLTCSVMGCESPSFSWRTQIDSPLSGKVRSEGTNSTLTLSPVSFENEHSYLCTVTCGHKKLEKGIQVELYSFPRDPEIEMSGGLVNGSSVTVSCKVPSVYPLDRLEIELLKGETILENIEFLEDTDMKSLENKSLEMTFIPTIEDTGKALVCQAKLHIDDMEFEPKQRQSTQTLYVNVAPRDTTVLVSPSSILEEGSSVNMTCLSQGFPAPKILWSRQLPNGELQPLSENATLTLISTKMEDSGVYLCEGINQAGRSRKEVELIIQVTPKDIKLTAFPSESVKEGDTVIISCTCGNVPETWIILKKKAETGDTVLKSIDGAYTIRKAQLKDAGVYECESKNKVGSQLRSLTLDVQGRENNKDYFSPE
rhB7-H1-Fc (human), sequence (Q9NZQ7 19-239): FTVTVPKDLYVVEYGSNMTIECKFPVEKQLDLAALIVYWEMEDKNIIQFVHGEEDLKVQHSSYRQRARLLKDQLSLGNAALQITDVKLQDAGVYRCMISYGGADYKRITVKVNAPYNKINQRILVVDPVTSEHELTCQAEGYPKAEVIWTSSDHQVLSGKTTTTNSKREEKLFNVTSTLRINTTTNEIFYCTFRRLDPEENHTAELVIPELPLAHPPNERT
rhNCAM-1 (human), sequence (P13591 other isoform, or with tags, fused parts or gaps limits assumed): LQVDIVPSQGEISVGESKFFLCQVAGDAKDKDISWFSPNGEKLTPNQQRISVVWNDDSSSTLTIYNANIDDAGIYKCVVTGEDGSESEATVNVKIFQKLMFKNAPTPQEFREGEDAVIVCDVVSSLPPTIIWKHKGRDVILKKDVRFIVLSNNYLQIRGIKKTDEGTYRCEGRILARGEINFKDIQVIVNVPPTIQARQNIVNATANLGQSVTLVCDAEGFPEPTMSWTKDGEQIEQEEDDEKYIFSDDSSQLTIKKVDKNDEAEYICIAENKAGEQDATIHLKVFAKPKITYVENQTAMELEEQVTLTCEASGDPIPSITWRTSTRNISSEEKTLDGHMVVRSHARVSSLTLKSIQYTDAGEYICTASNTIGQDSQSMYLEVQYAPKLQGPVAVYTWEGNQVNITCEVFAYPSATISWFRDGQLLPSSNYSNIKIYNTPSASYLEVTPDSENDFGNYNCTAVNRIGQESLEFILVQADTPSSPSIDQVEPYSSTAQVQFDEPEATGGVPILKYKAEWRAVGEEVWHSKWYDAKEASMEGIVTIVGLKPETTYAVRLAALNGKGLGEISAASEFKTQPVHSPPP
rhICAM-1-Fc (human), sequence (P05362 28-480): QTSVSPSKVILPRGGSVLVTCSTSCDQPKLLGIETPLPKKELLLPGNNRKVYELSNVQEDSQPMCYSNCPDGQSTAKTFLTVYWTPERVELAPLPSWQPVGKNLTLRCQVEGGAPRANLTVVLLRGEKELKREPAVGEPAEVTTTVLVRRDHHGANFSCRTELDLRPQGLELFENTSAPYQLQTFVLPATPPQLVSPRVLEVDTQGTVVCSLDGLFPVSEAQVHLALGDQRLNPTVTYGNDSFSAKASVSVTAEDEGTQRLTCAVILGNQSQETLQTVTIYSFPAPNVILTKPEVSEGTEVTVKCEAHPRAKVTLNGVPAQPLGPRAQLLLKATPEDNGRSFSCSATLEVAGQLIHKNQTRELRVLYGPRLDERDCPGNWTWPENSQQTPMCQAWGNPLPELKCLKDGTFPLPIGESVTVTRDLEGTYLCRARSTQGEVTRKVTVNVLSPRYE
mLox1-Fc (mouse), sequence (Q9EQ09 60-363): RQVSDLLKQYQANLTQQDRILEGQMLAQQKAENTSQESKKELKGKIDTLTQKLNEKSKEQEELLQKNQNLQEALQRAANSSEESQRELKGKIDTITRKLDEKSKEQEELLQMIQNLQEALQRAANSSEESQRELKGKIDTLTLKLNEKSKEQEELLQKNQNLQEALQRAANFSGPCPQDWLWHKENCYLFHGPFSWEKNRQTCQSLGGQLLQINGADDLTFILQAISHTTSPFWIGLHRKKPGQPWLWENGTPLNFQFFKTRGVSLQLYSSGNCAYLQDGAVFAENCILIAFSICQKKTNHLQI
rhTLR4 (C-terminal His tag) (human), sequence (O00206 24-631 limits assumed): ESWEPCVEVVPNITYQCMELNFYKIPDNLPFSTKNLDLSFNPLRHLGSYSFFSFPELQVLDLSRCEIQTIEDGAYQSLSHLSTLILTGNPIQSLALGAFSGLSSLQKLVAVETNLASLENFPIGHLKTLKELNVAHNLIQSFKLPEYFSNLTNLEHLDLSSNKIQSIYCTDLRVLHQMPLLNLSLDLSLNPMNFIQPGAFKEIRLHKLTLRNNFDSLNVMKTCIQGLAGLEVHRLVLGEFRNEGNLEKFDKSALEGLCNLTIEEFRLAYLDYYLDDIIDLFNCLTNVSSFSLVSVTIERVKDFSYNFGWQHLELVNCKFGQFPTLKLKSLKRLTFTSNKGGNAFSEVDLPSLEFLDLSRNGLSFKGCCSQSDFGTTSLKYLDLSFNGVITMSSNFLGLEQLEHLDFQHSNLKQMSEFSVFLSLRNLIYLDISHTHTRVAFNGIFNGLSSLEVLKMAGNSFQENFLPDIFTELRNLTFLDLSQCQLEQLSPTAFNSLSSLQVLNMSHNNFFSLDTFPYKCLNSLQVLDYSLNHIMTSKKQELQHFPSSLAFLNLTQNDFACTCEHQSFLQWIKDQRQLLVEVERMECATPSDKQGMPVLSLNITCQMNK

chimeric antibody XT-M4 (from UniProt P01857 1-330)
OD450 (mLox1-Fc (mouse)): 0.01
OD450 (rhVCAM-1 (human)): 0.004
OD450 [1]: 3.8
OD450 (rhICAM-1-Fc (human)): 0.004
OD450 (rhNCAM-1 (human)): 0.006
OD450 (rhB7-H1-Fc (human)): 0.003
OD450 (hLox1-Fc (human)): 0.017
OD450 [2]: 0
Kd [3]: 1.9 nM
Ka [4]: 1.77e+08 M⁻¹
Kd [4]: 5.66 nM
IC50 (read off the curve) [5]: 0.08 µg/mL
Kd [6]: 7.33 nM
EC50 [7]: 0.8 nM
IC50 (read off the curve) [8]: 0.1 µg/mL
EC50 [9]: 1.66 nM
IC50 (read off the curve) [10]: 0.09 µg/mL
Kd [11]: 7.91 nM
Kd [12]: 1.9 nM
IC50 (read off the curve) [13]: 0.2 µg/mL
IC50 (read off the curve) [14]: 0.4 µg/mL
Kd [15]: 2 nM
Kd [16]: 1.9 nM
